# Results as given in patent US20100119588A1.
# Target: hemagglutinin H1 on influenza virus A/Puerto Rico/8/34 strain (H1N1) (influenza virus A/Puerto Rico/8/34 (H1N1)) (UniProt P03452)
# Assay: cell-based or functional assay
row,Substance,"IC50(µM), plaque assay, infection of MDCK cells"
1,C18-s2(8-15) (C18-VHPKPAQP peptide amide),59 µM
2,C18-s2(2-8) (C18-RLPRTMV peptide amide),9.2 µM
3,C18-s2(1-5) (C18-ARLPR peptide amide),3.1 µM
4,C18-s2(4-8) (C18-PRTMV peptide amide),> 100 µM
5,C18-s2(1-2) (C18-AR peptide amide),> 100 µM
6,C18-s2(1-3) (C18-ARL peptide amide),> 100 µM
7,C18-s2(1-4) (C18-ARLP peptide amide),0.9 µM
8,C18-s2(3-8) (C18-LPRTMV peptide amide),> 100 µM
9,C18-s2(1-7) (C18-ARLPRTM peptide amide),7.1 µM
10,C18-s2(5-11) (C18-RTMVHPK peptide amide),11 µM
11,C18-s2(1-6) (C18-ARLPRT peptide amide),3.5 µM
12,C18-s2(r1-8) (C18-VMTRPLRA peptide amide),93 µM

# Target: hemagglutinin H1 on influenza virus A/Puerto Rico/8/34 strain (H1N1) (influenza virus A/Puerto Rico/8/34 (H1N1)) (UniProt P03452)
# Assay: cell-based or functional assay
# Remark: another data set of the same source
row,Substance,"IC50(µM), plaque assay, infection of MDCK cells"
1,C18-s2(r1-4) (C18-PLRA peptide amide),0.41 µM
2,C18-s2(1-8) (C18-ARLPRTMV peptide amide),2.4 µM
3,C18-s2(r1-5) (C18-RPLRA peptide amide),0.55 µM
4,C18-s2(1-5) (C18-ARLPR peptide amide),0.35 µM
